Assay results as given in paper PMC8586251, “Cryo-EM structure provides insights into the dimer arrangement of the O-linked β-N-acetylglucosamine transferase OGT” (Nature Communications, 2021).

Tests used:
[1] = target: O-GlcNAc transferase OGT, full length, isoform 3, double mutant (W208A, I211A) (UniProt O15294)
[2] = target: the molecule itself; assay: SEC-MALS; SEC-MALLS; Superdex S200 10/300 GL in 20 mM HEPES 7.5, 200 mM NaCl, room temperature; 100 µl of 3 mg/ml OGT injected, 0.5 ml/min; dimer against monomer

| relative second order rate constant of glycosyl transfer to TAB1 protein (fluorescent OGT activity assay), against wildtype OGT (% lower than wildtype) [1] | Molecule | stoichiometry N [2] |
| --- | --- | --- |
| 50 | O-GlcNAc transferase OGT, full length, isoform 3, double mutant (W208A, I211A) (from UniProt O15294-1 1-1046) (enzyme) | – |
| – | O-GlcNAc transferase OGT, full length, isoform 3, wildtype (construct for SEC-MALLS) (enzyme, UniProt O15294-1 1-1046, looked up, also called OGT wildtype; source: E. coli BL21-Gold(DE3), purified (HisTrap, Q Sepharose, Superdex 200)) MASSVGNVADSTEPTKRMLSFQGLAELAHREYQAGDFEAAERHCMQLWRQEPDNTGVLLLLSSIHFQCRRLDRSAHFSTLAIKQNPLLAEAYSNLGNVYKERGQLQEAIEHYRHALRLKPDFIDGYINLAAALVAAGDMEGAVQAYVSALQYNPDLYCVRSDLGNLLKALGRLEEAKACYLKAIETQPNFAVAWSNLGCVFNAQGEIWLAIHHFEKAVTLDPNFLDAYINLGNVLKEARIFDRAVAAYLRALSLSPNHAVVHGNLACVYYEQGLIDLAIDTYRRAIELQPHFPDAYCNLANALKEKGSVAEAEDCYNTALRLCPTHADSLNNLANIKREQGNIEEAVRLYRKALEVFPEFAAAHSNLASVLQQQGKLQEALMHYKEAIRISPTFADAYSNMGNTLKEMQDVQGALQCYTRAIQINPAFADAHSNLASIHKDSGNIPEAIASYRTALKLKPDFPDAYCNLAHCLQIVCDWTDYDERMKKLVSIVADQLEKNRLPSVHPHHSMLYPLSHGFRKAIAERHGNLCLDKINVLHKPPYEHPKDLKLSDGRLRVGYVSSDFGNHPTSHLMQSIPGMHNPDKFEVFCYALSPDDGTNFRVKVMAEANHFIDLSQIPCNGKAADRIHQDGIHILVNMNGYTKGARNELFALRPAPIQAMWLGYPGTSGALFMDYIITDQETSPAEVAEQYSEKLAYMPHTFFIGDHANMFPHLKKKAVIDFKSNGHIYDNRIVLNGIDLKAFLDSLPDVKIVKMKCPDGGDNADSSNTALNMPVIPMNTIAEAVIEMINRGQIQITINGFSISNGLATTQINNKAATGEEVPRTIIVTTRSQYGLPEDAIVYCNFNQLYKIDPSTLQMWANILKRVPNSVLWLLRFPAVGEPNIQQYAQNMGLPQNRIIFSPVAPKEEHVRRGQLADVCLDTPLCNGHTTGMDVLWAGTPMVTMPGETLASRVAASQLTCLGCLELIAKNRQEYEDIAVKLGTDLEYLKKVRGKVWKQRISSPLFNTKQYTMELERLYLQMWEHYAAGNKPDHMIKPVEVTESA | 2 |
| – | O-GlcNAc transferase OGT, full length, isoform 3, E206A (enzyme, UniProt O15294-1 1-1046, looked up, O-GlcNAc transferase OGT, isoform 3, UniProt O15294-1, full length, site-directed mutant; source: E. coli BL21-Gold(DE3), purified (HisTrap, Q Sepharose, Superdex 200)) MASSVGNVADSTEPTKRMLSFQGLAELAHREYQAGDFEAAERHCMQLWRQEPDNTGVLLLLSSIHFQCRRLDRSAHFSTLAIKQNPLLAEAYSNLGNVYKERGQLQEAIEHYRHALRLKPDFIDGYINLAAALVAAGDMEGAVQAYVSALQYNPDLYCVRSDLGNLLKALGRLEEAKACYLKAIETQPNFAVAWSNLGCVFNAQGAIWLAIHHFEKAVTLDPNFLDAYINLGNVLKEARIFDRAVAAYLRALSLSPNHAVVHGNLACVYYEQGLIDLAIDTYRRAIELQPHFPDAYCNLANALKEKGSVAEAEDCYNTALRLCPTHADSLNNLANIKREQGNIEEAVRLYRKALEVFPEFAAAHSNLASVLQQQGKLQEALMHYKEAIRISPTFADAYSNMGNTLKEMQDVQGALQCYTRAIQINPAFADAHSNLASIHKDSGNIPEAIASYRTALKLKPDFPDAYCNLAHCLQIVCDWTDYDERMKKLVSIVADQLEKNRLPSVHPHHSMLYPLSHGFRKAIAERHGNLCLDKINVLHKPPYEHPKDLKLSDGRLRVGYVSSDFGNHPTSHLMQSIPGMHNPDKFEVFCYALSPDDGTNFRVKVMAEANHFIDLSQIPCNGKAADRIHQDGIHILVNMNGYTKGARNELFALRPAPIQAMWLGYPGTSGALFMDYIITDQETSPAEVAEQYSEKLAYMPHTFFIGDHANMFPHLKKKAVIDFKSNGHIYDNRIVLNGIDLKAFLDSLPDVKIVKMKCPDGGDNADSSNTALNMPVIPMNTIAEAVIEMINRGQIQITINGFSISNGLATTQINNKAATGEEVPRTIIVTTRSQYGLPEDAIVYCNFNQLYKIDPSTLQMWANILKRVPNSVLWLLRFPAVGEPNIQQYAQNMGLPQNRIIFSPVAPKEEHVRRGQLADVCLDTPLCNGHTTGMDVLWAGTPMVTMPGETLASRVAASQLTCLGCLELIAKNRQEYEDIAVKLGTDLEYLKKVRGKVWKQRISSPLFNTKQYTMELERLYLQMWEHYAAGNKPDHMIKPVEVTESA | 2 |
| – | O-GlcNAc transferase OGT, full length, isoform 3, E215A (enzyme, UniProt O15294-1 1-1046, looked up, O-GlcNAc transferase OGT, isoform 3, UniProt O15294-1, full length, site-directed mutant; source: E. coli BL21-Gold(DE3), purified (HisTrap, Q Sepharose, Superdex 200)) MASSVGNVADSTEPTKRMLSFQGLAELAHREYQAGDFEAAERHCMQLWRQEPDNTGVLLLLSSIHFQCRRLDRSAHFSTLAIKQNPLLAEAYSNLGNVYKERGQLQEAIEHYRHALRLKPDFIDGYINLAAALVAAGDMEGAVQAYVSALQYNPDLYCVRSDLGNLLKALGRLEEAKACYLKAIETQPNFAVAWSNLGCVFNAQGEIWLAIHHFAKAVTLDPNFLDAYINLGNVLKEARIFDRAVAAYLRALSLSPNHAVVHGNLACVYYEQGLIDLAIDTYRRAIELQPHFPDAYCNLANALKEKGSVAEAEDCYNTALRLCPTHADSLNNLANIKREQGNIEEAVRLYRKALEVFPEFAAAHSNLASVLQQQGKLQEALMHYKEAIRISPTFADAYSNMGNTLKEMQDVQGALQCYTRAIQINPAFADAHSNLASIHKDSGNIPEAIASYRTALKLKPDFPDAYCNLAHCLQIVCDWTDYDERMKKLVSIVADQLEKNRLPSVHPHHSMLYPLSHGFRKAIAERHGNLCLDKINVLHKPPYEHPKDLKLSDGRLRVGYVSSDFGNHPTSHLMQSIPGMHNPDKFEVFCYALSPDDGTNFRVKVMAEANHFIDLSQIPCNGKAADRIHQDGIHILVNMNGYTKGARNELFALRPAPIQAMWLGYPGTSGALFMDYIITDQETSPAEVAEQYSEKLAYMPHTFFIGDHANMFPHLKKKAVIDFKSNGHIYDNRIVLNGIDLKAFLDSLPDVKIVKMKCPDGGDNADSSNTALNMPVIPMNTIAEAVIEMINRGQIQITINGFSISNGLATTQINNKAATGEEVPRTIIVTTRSQYGLPEDAIVYCNFNQLYKIDPSTLQMWANILKRVPNSVLWLLRFPAVGEPNIQQYAQNMGLPQNRIIFSPVAPKEEHVRRGQLADVCLDTPLCNGHTTGMDVLWAGTPMVTMPGETLASRVAASQLTCLGCLELIAKNRQEYEDIAVKLGTDLEYLKKVRGKVWKQRISSPLFNTKQYTMELERLYLQMWEHYAAGNKPDHMIKPVEVTESA | 2 |
